Consider 1 molecule from PMC2722981.

In general, Kd refers to the concentration at which binding is half-saturated. A high value points to weaker binding.

In this data set the target is PCBP1 KH1/2 (mouse, UniProt P60335 13-170). Nature of the data set: filter binding.
PCBP1 KH1/2, sequence (P60335 13-170): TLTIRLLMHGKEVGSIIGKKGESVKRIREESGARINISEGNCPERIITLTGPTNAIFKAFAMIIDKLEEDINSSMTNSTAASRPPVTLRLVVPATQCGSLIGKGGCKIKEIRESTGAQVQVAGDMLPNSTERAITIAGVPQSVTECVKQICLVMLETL

B1: R7a1 (structured_RNA)
RNA: GGAGUGACCUUCUCAACUUUAUAUUCCCUUUACCCCUUCCCCCAAGGCACU
Consider B1, for which the Kd was 42.3 ± 12 nM.
